The source of these data is article PMC12668182, “Molecular basis for CSB stimulation of the SNM1A DNA repair nuclease” (Research Square, 2025).

Experiment [1] deals with T1, HaloTag-CSB, full length, JaneliaFluor-labelled (human, UniProt Q03468 1-1493, JaneliaFluor dye (JF552 or JF635) on the HaloTag).
T1 construct: CSB (ERCC6), human, full length, codon-optimised for mammalian expression; Vectors with N-terminal HaloTag under a CMV promoter (Promega pFN28A or Addgene 58241, both used on separate days); also called CSB (JF-635, red); CSB (JF552, green); source: Expi293F, transfected, in nuclear extract; not shown: HaloTag, N-terminal, kept
Nature of the experiment: single-molecule fluorescence on tethered DNA (SMADNE, LUMICKS C-Trap); partially purified HaloTag-JF-552 SNM1A added to HaloTag-CSB (JF635) nuclear extract, on lambda dsDNA; category 9 colocalisation events; apparent constants; DNA present. The following applies: one partner purified.

Experiment [2] concerns the target T1, HaloTag-CSB, full length, …. Nature of the experiment: single-molecule fluorescence on tethered DNA (SMADNE, LUMICKS C-Trap); partially purified HaloTag-JF-552 SNM1A added to HaloTag-CSB (JF635) nuclear extract, on a site-specific ICL flap repair intermediate in 12 kb DNA; apparent constants; DNA present. The following applies: one partner purified.

B1: HaloTag-JF-552-labelled SNM1A (a.a. 698-1040), partially purified (domain or fragment, human, UniProt Q6PJP8 698-1040, looked up)
chain: KKTCPFYKKIPGTGFTVDAFQYGVVEGCTAYFLTHFHSDHYAGLSKHFTFPVYCSEITGNLLKNKLHVQEQYIHPLPLDTECIVNGVKVVLLDANHCPGAVMILFYLPNGTVILHTGDFRADPSMERSLLADQKVHMLYLDTTYCSPEYTFPSQQEVIRFAINTAFEAVTLNPHALVVCGTYSIGKEKVFLAIADVLGSKVGMSQEKYKTLQCLNIPEINSLITTDMCSSLVHLLPMMQINFKGLQSHLKKCGGKYNQILAFRPTGWTHSNKFTRIADVIPQTKGNISIYGIPYSEHSSYLEMKRFVQWLKPQKIIPTVNVGTWKSRSTMEKYFREWKLEAGY
modifications: JF-552 dye on the HaloTag
notes: SNM1A (DCLRE1A), human, catalytic C-terminal domain, residues 698-1040; Addgene vector (printed as Addgene: 58241) giving an N-terminal His-Halo tag; also called SNM1A (JF-552, green); SNM1A_(698-1040) for single-molecule studies; source: Expi293F, transfected, partially purified (Ni-NTA); not shown: HaloTag, N-terminal, kept
Turning to B1, in experiment [1], the “apparent KD of SNM1A for CSB-bound lambda dsDNA” value worked out at 17.5 nM. Also, in experiment [2], the “apparent KD of SNM1A for the CSB-bound ICL repair intermediate” value came out at 45 nM.
